Test results as given in PMC3161968.

Target: recombinant flagellin type B of P. aeruginosa (P. aeruginosa) (UniProt P72151)
UniProt P72151, sequence (P72151 whole entry): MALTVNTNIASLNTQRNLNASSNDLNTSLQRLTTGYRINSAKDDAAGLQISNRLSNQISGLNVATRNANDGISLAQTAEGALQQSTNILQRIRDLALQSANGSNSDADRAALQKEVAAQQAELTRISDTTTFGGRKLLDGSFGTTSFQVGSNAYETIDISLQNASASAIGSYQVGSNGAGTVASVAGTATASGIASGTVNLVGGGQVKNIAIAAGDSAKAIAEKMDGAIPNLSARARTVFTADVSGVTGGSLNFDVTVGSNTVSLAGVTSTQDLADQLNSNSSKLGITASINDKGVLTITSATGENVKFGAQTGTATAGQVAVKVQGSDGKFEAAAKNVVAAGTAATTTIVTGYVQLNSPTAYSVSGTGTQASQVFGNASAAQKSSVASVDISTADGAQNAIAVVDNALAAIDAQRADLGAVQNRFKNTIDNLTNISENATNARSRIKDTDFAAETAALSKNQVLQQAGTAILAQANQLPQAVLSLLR

Work on “recombinant His-AprA (alkaline protease of P. aeruginosa) (from UniProt Q03023 10-479) (enzyme)” yielded an inhibition of flagellin-induced IL-8 production by HEK/TLR5 cells (30 ng/ml P. aeruginosa flagellin; the pair whose signalling is blocked is m6 with m7); AprA acts by degrading flagellin of 30 ng/mL.
